This is an account of results in US20170349646A1 (PANASONIC INTELLECTUAL PROPERTY MANAGEMENT, published 2017).

The target in assay [1] is recombinant nucleoprotein (NP) protein derived from influenza virus H1N1 to which a Flag tag was fus (influenza virus H1N1).
For assay [2], the target named is recombinant nucleoprotein derived from influenza virus subtype A H1N1 (Sino Biological, 11675-VO8H) (influenza virus subtype A H1N1).
Chain of recombinant nucleoprotein derived from influenza virus subtype A H1N1 (Sino Biological, 11675-VO8H) (influenza virus subtype A H1N1) (P03466 whole entry): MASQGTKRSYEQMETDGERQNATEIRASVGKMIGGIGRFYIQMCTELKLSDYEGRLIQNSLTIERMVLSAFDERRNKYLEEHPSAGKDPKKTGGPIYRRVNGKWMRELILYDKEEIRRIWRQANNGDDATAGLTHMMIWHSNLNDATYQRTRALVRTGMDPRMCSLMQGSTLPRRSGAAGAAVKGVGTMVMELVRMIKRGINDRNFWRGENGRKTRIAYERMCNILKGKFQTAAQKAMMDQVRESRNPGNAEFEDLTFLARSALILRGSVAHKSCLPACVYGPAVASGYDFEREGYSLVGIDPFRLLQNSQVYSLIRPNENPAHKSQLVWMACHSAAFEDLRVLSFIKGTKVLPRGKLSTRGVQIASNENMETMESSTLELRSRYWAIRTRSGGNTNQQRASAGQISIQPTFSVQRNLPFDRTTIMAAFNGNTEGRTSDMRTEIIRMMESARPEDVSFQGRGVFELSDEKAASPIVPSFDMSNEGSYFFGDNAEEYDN

Chain of recombinant nucleoprotein (NP) protein derived from influenza virus H1N1 to which a Flag tag was fus (influenza virus H1N1) (P03466 whole entry): as above

B1: VHH antibody consisting of the amino acid sequence represented by SEQ ID NO: 08 (VHH)
VHH: EVQLVESGGGLVQAGDSLRLSCAASGRTFINLDMGWFRQPPGKEREYVAAITRNGAITSYADSAKGRFTISRDNAKNTVSLEMNSLKPEDTGVYYCAAYSISNYGSGWYKPDYWGQGAQVTVSS
B1: the Kd (usually a measure of binding affinity in units of concentration) in assay [1] was 0.224 nM. In assay [2], the EC50 (read off the curve) (usually the concentration needed to bring the measured effect to its halfway point) was approximately 8 ng/mL.
